Data on two molecules can be found in patent US20250188161A1 (UNIVERSITE CATHOLIQUE DE LOUVAIN, published 2025).

“And” between values parts separate entries of the source, which are not always exact repeats. Equal values may be shown once.

Experiment [1] deals with T1, mouse latent TGF-β2 on transfected 293T cells (mouse, UniProt P27090 21-414).
T1 construct: whole, on cells; also called murine latent TGF-β2; HA-tagged TGF-β2
T1 sequence (looked up): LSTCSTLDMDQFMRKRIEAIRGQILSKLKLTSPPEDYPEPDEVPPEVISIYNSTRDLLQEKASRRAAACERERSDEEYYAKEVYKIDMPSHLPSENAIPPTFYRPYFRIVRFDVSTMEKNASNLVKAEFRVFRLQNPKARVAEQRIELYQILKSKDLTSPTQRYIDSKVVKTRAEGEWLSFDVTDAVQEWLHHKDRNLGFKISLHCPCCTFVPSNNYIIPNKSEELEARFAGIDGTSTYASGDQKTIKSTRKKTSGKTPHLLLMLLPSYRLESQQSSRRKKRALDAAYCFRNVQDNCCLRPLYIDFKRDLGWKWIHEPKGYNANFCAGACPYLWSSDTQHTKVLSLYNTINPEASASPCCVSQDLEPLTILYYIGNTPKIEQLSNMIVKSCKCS
The experiment is described as follows: flow cytometry, 293T cells transfected with GARP and HA-TGF-β2, GAM-FITC as secondary reagent; expression shown by anti-HA staining. The source says:
(§1) Flow cytometry was used to ensure that LMT-12 binds specifically to mouse latent TGF-β1 and not to mouse latent TGF-β2 and mouse latent TGF-β3. Briefly, 293T cells were transfected with plasmids encoding HA-tagged TGF-β1, β2, or β3, with a plasmid encoding GARP. They were then stained with the indicated concentrations of LMT-12 mIgG1 or anti-HA mIgG1 antibody and thereafter with goat anti-mouse coupled to FITC (GAM-FITC) as secondary reagent. Using flow cytometry, histograms were gated on live cells as determined with a viability dye (Bioscience, cat. 65-0865-14).

In experiment [2] the target is T2, mouse latent TGF-β3 on transfected 293T cells (mouse, UniProt P17125 24-410).
T2 construct: whole, on cells; also called murine latent TGF-β3; HA-tagged TGF-β3
T2 sequence (looked up): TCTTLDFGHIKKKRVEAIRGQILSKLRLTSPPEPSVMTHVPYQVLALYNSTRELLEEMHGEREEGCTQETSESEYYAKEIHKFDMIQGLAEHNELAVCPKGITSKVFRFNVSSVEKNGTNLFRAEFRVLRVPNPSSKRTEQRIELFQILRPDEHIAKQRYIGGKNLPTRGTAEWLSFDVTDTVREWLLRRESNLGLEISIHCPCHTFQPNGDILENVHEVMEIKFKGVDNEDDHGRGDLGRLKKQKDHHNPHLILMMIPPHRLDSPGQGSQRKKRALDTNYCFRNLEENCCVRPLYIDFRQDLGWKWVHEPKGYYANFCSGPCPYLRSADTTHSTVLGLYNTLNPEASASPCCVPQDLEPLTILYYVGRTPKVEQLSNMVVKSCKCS
Nature of the experiment: flow cytometry, 293T cells transfected with GARP and HA-TGF-β3, GAM-FITC as secondary reagent; anti-HA staining gives only a low tail.
Excerpt: as §1
A general note: A flow cytometer gives signals particle by particle.

Experiment [3] has as its target T3, human latent TGF-β1 (human, UniProt P01137 30-278; P01137 279-390).
T3 construct: signal peptide 1-29 left out; also called human latent TGF-β1 (immobilised / coated protein)
Nature of the experiment: SPR (Biacore 3000), human latent TGFβ1 amine-coupled on CM5, antibody injected.

For experiment [4], the target named is T4, Q210A.
T4 construct: co-expressed with GARP; also called mouse TGF-β1 Q210A single Ala-mutant on HEK-293T cells
The experiment is described as follows: Ala-scan, flow cytometry, HEK-293T cells with GARP and the HA-tagged Ala-mutant; residual binding in % of WT. From the text:
(§2) To perform “Ala-scan” analyses, we co-transfected plasmids encoding mouse or human GARP and the single Ala-mutants of mouse or human TGF-β1 in HEK-293T cells, and analyzed binding by TGF-β1-activating and non-activating mAbs using flow cytometry (FIG. 3C).

Experiment [5] deals with T5, S220A.
T5 construct: co-expressed with GARP; also called mouse TGF-β1 S220A single Ala-mutant on HEK-293T cells
T5 sequence (HA-tagged latent TGF-β1, as listed by the source S220A S220A limits assumed): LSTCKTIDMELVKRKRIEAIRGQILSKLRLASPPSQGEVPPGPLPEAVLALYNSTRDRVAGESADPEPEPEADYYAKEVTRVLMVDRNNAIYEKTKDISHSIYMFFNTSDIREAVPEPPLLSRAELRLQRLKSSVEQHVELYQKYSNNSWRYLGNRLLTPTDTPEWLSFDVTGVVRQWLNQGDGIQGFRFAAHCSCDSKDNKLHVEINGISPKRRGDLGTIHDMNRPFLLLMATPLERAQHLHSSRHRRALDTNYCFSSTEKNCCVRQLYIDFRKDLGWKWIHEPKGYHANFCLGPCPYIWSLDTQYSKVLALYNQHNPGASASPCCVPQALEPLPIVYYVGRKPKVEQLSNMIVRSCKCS
Described as above.
Excerpt: as §2

The target of experiment [6] is T6, Q206A.
T6 construct: co-expressed with GARP; also called mouse TGF-β1 Q206A single Ala-mutant on HEK-293T cells
T6 sequence (HA-tagged latent TGF-β1, as listed by the source Q206A Q206A limits assumed): as the sequence (HA-tagged latent TGF-β1, as listed by the source S220A S220A limits assumed) above, with Q177A, A191S counted along it
Described as above.
Excerpt: as §2

Experiment [7] concerns the target T7, R218A.
T7 construct: co-expressed with GARP; also called mouse TGF-β1 R218A single Ala-mutant on HEK-293T cells
The experiment is described as above.
Excerpt: as §2

For experiment [8], the target named is T8, I214A.
T8 construct: co-expressed with GARP; also called mouse TGF-β1 I214A single Ala-mutant on HEK-293T cells
T8 sequence (HA-tagged latent TGF-β1, as listed by the source I214A I214A limits assumed): as the sequence (HA-tagged latent TGF-β1, as listed by the source S220A S220A limits assumed) above, with I185A, A191S counted along it
Described as above.
Excerpt: as §2

Experiment [9] deals with T9, V204A.
T9 construct: co-expressed with GARP; also called mouse TGF-β1 V204A single Ala-mutant on HEK-293T cells
Described as above.
Excerpt: as §2

Experiment [10] deals with T10, F217A.
T10 construct: co-expressed with GARP; also called mouse TGF-β1 F217A single Ala-mutant on HEK-293T cells
T10 sequence (HA-tagged latent TGF-β1, as listed by the source F217A F217A limits assumed): as the sequence (HA-tagged latent TGF-β1, as listed by the source S220A S220A limits assumed) above, with F188A, A191S counted along it
The description is as above.
Excerpt: as §2

For experiment [11], the target named is T11, W207A.
T11 construct: co-expressed with GARP; also called mouse TGF-β1 W207A single Ala-mutant on HEK-293T cells
The description is as above.
Excerpt: as §2

Experiment [12] addresses T12, G202A.
T12 construct: co-expressed with GARP; also called mouse TGF-β1 G202A single Ala-mutant on HEK-293T cells
The description is as above.
Excerpt: as §2

Experiment [13] deals with T13, N209A.
T13 construct: co-expressed with GARP; also called mouse TGF-β1 N209A single Ala-mutant on HEK-293T cells
T13 sequence (HA-tagged latent TGF-β1, as listed by the source N209A N209A limits assumed): as the sequence (HA-tagged latent TGF-β1, as listed by the source S220A S220A limits assumed) above, with N180A, A191S counted along it
The experiment is described as above.
Excerpt: as §2

The target in experiment [14] is T14, V203A.
T14 construct: co-expressed with GARP; also called mouse TGF-β1 V203A single Ala-mutant on HEK-293T cells
Described as above.
Excerpt: as §2

The target in experiment [15] is T15, G216A.
T15 construct: co-expressed with GARP; also called mouse TGF-β1 G216A single Ala-mutant on HEK-293T cells
Described as above.
Excerpt: as §2

In experiment [16] the target is T16, G211A.
T16 construct: co-expressed with GARP; also called mouse TGF-β1 G211A single Ala-mutant on HEK-293T cells
T16 sequence (HA-tagged latent TGF-β1, as listed by the source G211A G211A limits assumed): as the sequence (HA-tagged latent TGF-β1, as listed by the source S220A S220A limits assumed) above, with G182A, A191S counted along it
The description is as above.
Excerpt: as §2

The target of experiment [17] is T17, T201A.
T17 construct: co-expressed with GARP; also called mouse TGF-β1 T201A single Ala-mutant on HEK-293T cells
T17 sequence (HA-tagged latent TGF-β1, as listed by the source T201A T201A limits assumed): as the sequence (HA-tagged latent TGF-β1, as listed by the source S220A S220A limits assumed) above, with T172A, A191S counted along it
The experiment is described as above.
Excerpt: as §2

Experiment [18] addresses T18, F219A.
T18 construct: co-expressed with GARP; also called mouse TGF-β1 F219A single Ala-mutant on HEK-293T cells
The description is as above.
Excerpt: as §2

The target in experiment [19] is T19, Q215A.
T19 construct: co-expressed with GARP; also called mouse TGF-β1 Q215A single Ala-mutant on HEK-293T cells
The description is as above.
Excerpt: as §2

The target of experiment [20] is T20, G213A.
T20 construct: co-expressed with GARP; also called mouse TGF-β1 G213A single Ala-mutant on HEK-293T cells
The experiment is described as above.
Excerpt: as §2

For experiment [21], the target named is T21, R205A.
T21 construct: co-expressed with GARP; also called mouse TGF-β1 R205A single Ala-mutant on HEK-293T cells
T21 sequence (HA-tagged latent TGF-β1, as listed by the source R205A R205A limits assumed): as the sequence (HA-tagged latent TGF-β1, as listed by the source S220A S220A limits assumed) above, with R176A, A191S counted along it
The experiment is described as above.
Excerpt: as §2

For experiment [22], the target named is T22, mouse latent TGF-β1 on transfected HEK-293T cells (mouse, UniProt P04202 30-278; P04202 279-390). The experiment is described as follows: cell-based or functional assay.
T22 sequence (P04202 30-278, chain 1 of 2): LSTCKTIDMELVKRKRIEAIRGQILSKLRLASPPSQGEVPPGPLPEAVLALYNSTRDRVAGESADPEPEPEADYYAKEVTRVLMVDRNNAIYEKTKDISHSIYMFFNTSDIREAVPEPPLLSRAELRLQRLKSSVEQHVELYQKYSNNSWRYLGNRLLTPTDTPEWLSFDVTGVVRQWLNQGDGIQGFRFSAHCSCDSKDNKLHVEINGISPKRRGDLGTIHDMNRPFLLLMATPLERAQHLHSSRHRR
T22 sequence (P04202 279-390, chain 2 of 2): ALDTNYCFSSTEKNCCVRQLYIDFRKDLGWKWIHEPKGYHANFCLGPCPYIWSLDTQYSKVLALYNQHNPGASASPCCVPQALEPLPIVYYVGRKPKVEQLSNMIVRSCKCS
Experiment [23] concerns the target T23, mouse latent TGF-β1 (mouse, UniProt P04202 30-278; P04202 279-390).
T23 construct: signal peptide 1-29 left out; also called murine latent TGF-β1 (immobilised protein)
The experiment is described as follows: SPR (Biacore 3000), mouse latent TGFβ1 amine-coupled on CM5 (about 500 RU), antibody at 3-100 nM. The procedure:
A CM5 chip was immobilized with approximately 500RU human latent TGFβ1 and mouse latent TGFβ1 in sodium acetate buffer pH4.5 (GE Healthcare, #BR100350) using amine coupling and consuming HBS-EP buffer. The flow was set to 30 μl/min with the “kinject” injection mode and a regeneration injection of 10 mM glycine pH1.5.
For orientation: In SPR one partner is held on a chip, and binding of the other changes the refractive index at the surface.

Experiment [24] has as its target T22, mouse latent TGF-β1 on transfected …. Nature of the experiment: flow cytometry, HEK-293T cells co-transfected with mGarp and the HA-tagged TGF-β1 construct.
The target of experiment [25] is mouse TGF-β1 L208A single Ala-mutant on HEK-293T cells (mouse, UniProt P04202 30-278; P04202 279-390). Nature of the experiment: Ala-scan, flow cytometry on HEK-293T cells with mouse GARP and HA-tagged single Ala-mutant.
Chain of mouse TGF-β1 L208A single Ala-mutant on HEK-293T cells (P04202 30-278 L208A, chain 1 of 2): as the sequence (P04202 30-278, chain 1 of 2) above, with L179A counted along it
Chain of mouse TGF-β1 L208A single Ala-mutant on HEK-293T cells (P04202 279-390, chain 2 of 2): as the sequence (P04202 279-390, chain 2 of 2) above
Excerpt: as §2

For experiment [26], the target named is mouse TGF-β1 D212A single Ala-mutant on HEK-293T cells (mouse, UniProt P04202 30-278; P04202 279-390). Described as above.
Excerpt: as §2

T23 sequence (P04202 30-278, chain 1 of 2): as the sequence (P04202 30-278, chain 1 of 2) above
T23 sequence (P04202 279-390, chain 2 of 2): as the sequence (P04202 279-390, chain 2 of 2) above
T7 sequence (HA-tagged latent TGF-β1, as listed by the source R218A R218A limits assumed): as the sequence (HA-tagged latent TGF-β1, as listed by the source S220A S220A limits assumed) above, with R189A, A191S counted along it
T3 sequence (P01137 30-278, chain 1 of 2): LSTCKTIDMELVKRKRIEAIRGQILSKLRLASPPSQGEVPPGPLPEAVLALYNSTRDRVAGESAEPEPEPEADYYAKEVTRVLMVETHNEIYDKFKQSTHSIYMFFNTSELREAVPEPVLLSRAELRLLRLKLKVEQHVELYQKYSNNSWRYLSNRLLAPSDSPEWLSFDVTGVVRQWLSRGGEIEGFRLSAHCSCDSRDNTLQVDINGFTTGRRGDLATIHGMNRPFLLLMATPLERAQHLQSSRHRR
T3 sequence (P01137 279-390, chain 2 of 2): as the sequence (P04202 279-390, chain 2 of 2) above, with S75A counted along it

B1: LMT-12 mIgG1 (antibody, V domains shown)
VH: EVQLVESGGGLVQPGGSLRLSCAASGFTFSSYYMYWVRQAPGKGLEWVSGTSIGGGSTWYADSVKGRFTISRDNAKNTLYLQMNNLKSEDTAVYYCAKDLNSRSYKGMGDWGQGTQVTVSS
VL: QPALTQLSSMSGSPGQTVTITCTGSSSNIGGGYYLNWYQQLPGAAPKLVIYNANNRASGVPDRFSGSKSGNLASLTITGLQAEDEAVYFCGCYDSSLSSVVFGGGTHLTVL
notes: also called mAb LMT-12
Turning to B1, the binding result in [1] and in experiment [2] was “no binding (tested: 20.00 µg/ml)” each time.

B2: LMT-2 (6D12) (antibody, V domains shown)
VH: EVQLVESGGGLVQPGGSLRLSCAASGFTFSNYGVHWVRQAPGKGLEWVSHISAAGISRYYADAVKGRFTMSRDNGKNTLYLQMNGLKSEDTAVYYCAKDRIRSSYEYDSWGQGTQVTVSS
VL: LPVLTQLSSMSGSPGQTVTITCTGSSSNIGGGYYLSWYQQLPGTAPKLLIYNANNRASGVPNRFSGSKSGNLASLTITGLQAEDEADYYCGCYDSSLSTGYVFGGGTKLTVL
notes: also called LMT-2 (hIgG1)
As a reminder, the Kd is the constant that tells how readily two partners part at equilibrium. For orientation: koff means a measure of how fast the partners let go of each other. Read a low koff as slow dissociation. In general, kon refers to the rate constant with which the complex forms. The low end stands for slow association, the high end for fast association. As to B2, the binding result in experiment [3] was “no binding (tested: six concentrations, 3 nM to 100 nM)”; in experiment [4], “binds”; in experiment [5], “binds”; in [6] it was “binds”; in experiment [7], “binds”; in experiment [8], “binds”. In addition, the binding result in experiment [9], in experiment [10], in experiment [11], in experiment [12], in [13] and in experiment [14] was “binds” throughout. In addition, the binding result in experiment [15], in experiment [16], in experiment [17], in [18], in experiment [19] and in experiment [20] was “binds” each time. Besides, the binding result in [21] is “binds”; in [25] it was “no binding”; in experiment [26], “no binding”. In addition, in experiment [22], the “EC50, TGF-β1 luciferase reporter assay in HEK-293T cells expressing GARP:TGF-β1” value was 76 ng/ml and 0.5 nM. The “Amplitude R0 (RU)” value in [23] is 241 RU. Further, the affinity in experiment [23], expressed as Kd, was 0.633 nM. The dissociation rate constant (koff) in experiment [23] worked out at 0.000718 s⁻¹. In experiment [23], the kon was determined as 1.14e+06 M⁻¹ s⁻¹. Besides, in experiment [24], the “% binding relative to WT TGF-β1 (100 %)” value was 100%.
